Test results reported in the supplement of paper PMC9112550, “Optimization of the antimicrobial peptide Bac7 by deep mutational scanning” (BMC Biology, 2022).

system: Escherichia coli TOP10; experiment: shrunken log2 fold change of peptide-encoding DNA abundance (4.5 h post-induction vs induction); higher = less antimicrobial activity (less host growth inhibition); conditions: time post-induction: 4.5 h; library: site-saturation at positions 5, 18, 19, 20
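Also: peptides expressed intracellularly from a pBAD plasmid library in pooled LB shake-flask culture, induced with 0.3% L-arabinose, DNA abundance read by NGS, three biological replicates, DESeq2 with apeglm shrinkage.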

Question: With RRIRCRPPRLPRPRPRPAGRPRP as the sequence, how does the “shrunken log2 fold change” value read?
Answer: 0.373

Question: Which “shrunken log2 fold change” value does the source give for RRIRCRPPRLPRPRPRPKARPRP here?
Answer: 0.315

Question: Which “shrunken log2 fold change” value does the source give for RRIRRRPPRLPRPRPRPAGSPRP here?
Answer: 0.384

Question: How did the “shrunken log2 fold change” value turn out when RRIRDRPPRLPRPRPRPPSQPRP was run?
Answer: 0.113

Question: RRIRRRPPRLPRPRPRPTRTPRP was tested. Which “shrunken log2 fold change” value did it give?
Answer: 0.681

Question: For RRIRERPPRLPRPRPRPQCDPRP, which “shrunken log2 fold change” value is on record?
Answer: -0.162

Question: How did the “shrunken log2 fold change” value turn out when RRIRRRPPRLPRPRPRPQTMPRP was run?
Answer: 0.0791

Question: RRIRVRPPRLPRPRPRPHAWPRP was tested. Which “shrunken log2 fold change” value did it give?
Answer: 0.0267

Question: Which “shrunken log2 fold change” value does the source give for RRIRMRPPRLPRPRPRPRQGPRP here?
Answer: -0.0232

Question: Which “shrunken log2 fold change” value does the source give for RRIRWRPPRLPRPRPRPSGAPRP here?
Answer: 0.527

Question: How did the “shrunken log2 fold change” value turn out when RRIRRRPPRLPRPRPRPPCAPRP was run?
Answer: 0.667

Question: Which “shrunken log2 fold change” value does the source give for RRIRMRPPRLPRPRPRPVLKPRP here?
Answer: 0.072

Question: With RRIRNRPPRLPRPRPRPASNPRP as the sequence, how does the “shrunken log2 fold change” value read?
Answer: -0.065

Question: Which “shrunken log2 fold change” value does the source give for RRIRNRPPRLPRPRPRPYQVPRP here?
Answer: -0.0131

Question: For RRIRERPPRLPRPRPRPPHIPRP, which “shrunken log2 fold change” value is on record?
Answer: -0.366

Question: Which “shrunken log2 fold change” value does the source give for RRIRKRPPRLPRPRPRPVVQPRP here?
Answer: 0.242

Question: For RRIRIRPPRLPRPRPRPARPPRP, which “shrunken log2 fold change” value is on record?
Answer: 0.474

Question: For RRIRARPPRLPRPRPRPDVDPRP, which “shrunken log2 fold change” value is on record?
Answer: 1.1

Question: How did the “shrunken log2 fold change” value turn out when RRIRNRPPRLPRPRPRPWCAPRP was run?
Answer: -0.0696

Question: With RRIRHRPPRLPRPRPRPGQGPRP as the sequence, how does the “shrunken log2 fold change” value read?
Answer: -0.104

Question: With RRIRFRPPRLPRPRPRPYFAPRP as the sequence, how does the “shrunken log2 fold change” value read?
Answer: -0.572

Question: With RRIRGRPPRLPRPRPRPVVNPRP as the sequence, how does the “shrunken log2 fold change” value read?
Answer: 0.0184

Question: With RRIRFRPPRLPRPRPRPKTHPRP as the sequence, how does the “shrunken log2 fold change” value read?
Answer: -0.0208

Question: How did the “shrunken log2 fold change” value turn out when RRIRSRPPRLPRPRPRPHLWPRP was run?
Answer: -0.0232

Question: With RRIRMRPPRLPRPRPRPNDQPRP as the sequence, how does the “shrunken log2 fold change” value read?
Answer: 0.0566

Question: With RRIRMRPPRLPRPRPRPHDHPRP as the sequence, how does the “shrunken log2 fold change” value read?
Answer: -0.0397

Question: Which “shrunken log2 fold change” value does the source give for RRIRARPPRLPRPRPRPPHIPRP here?
Answer: 0.455

Question: How did the “shrunken log2 fold change” value turn out when RRIRMRPPRLPRPRPRPSNKPRP was run?
Answer: 0.0232

Question: Which “shrunken log2 fold change” value does the source give for RRIRQRPPRLPRPRPRPLNEPRP here?
Answer: -0.136

Question: With RRIRIRPPRLPRPRPRPWWYPRP as the sequence, how does the “shrunken log2 fold change” value read?
Answer: -0.179

Question: With RRIRVRPPRLPRPRPRPEGCPRP as the sequence, how does the “shrunken log2 fold change” value read?
Answer: 0.132

Question: Which “shrunken log2 fold change” value does the source give for RRIRTRPPRLPRPRPRPIQRPRP here?
Answer: 0.0582

Question: With RRIRSRPPRLPRPRPRPCSTPRP as the sequence, how does the “shrunken log2 fold change” value read?
Answer: 0.129

Question: RRIRQRPPRLPRPRPRPELGPRP was tested. Which “shrunken log2 fold change” value did it give?
Answer: 0.0387

Question: For RRIRWRPPRLPRPRPRPCMPPRP, which “shrunken log2 fold change” value is on record?
Answer: -0.425

Question: RRIRHRPPRLPRPRPRPCPRPRP was tested. Which “shrunken log2 fold change” value did it give?
Answer: -0.28

Question: For RRIRHRPPRLPRPRPRPLFRPRP, which “shrunken log2 fold change” value is on record?
Answer: 0.0546

Question: How did the “shrunken log2 fold change” value turn out when RRIRHRPPRLPRPRPRPIYYPRP was run?
Answer: -0.32

Question: RRIRCRPPRLPRPRPRPYIRPRP was tested. Which “shrunken log2 fold change” value did it give?
Answer: -1.22

Question: With RRIRKRPPRLPRPRPRPLWVPRP as the sequence, how does the “shrunken log2 fold change” value read?
Answer: 0.0688

Question: How did the “shrunken log2 fold change” value turn out when RRIRARPPRLPRPRPRPEIGPRP was run?
Answer: 0.675

Question: With RRIRFRPPRLPRPRPRPMSPPRP as the sequence, how does the “shrunken log2 fold change” value read?
Answer: -0.0304

Question: Which “shrunken log2 fold change” value does the source give for RRIRRRPPRLPRPRPRPVSCPRP here?
Answer: -0.121

Question: For RRIRRRPPRLPRPRPRPYACPRP, which “shrunken log2 fold change” value is on record?
Answer: -0.207

Question: With RRIRNRPPRLPRPRPRPHFPPRP as the sequence, how does the “shrunken log2 fold change” value read?
Answer: -0.186

Question: For RRIRCRPPRLPRPRPRPYIAPRP, which “shrunken log2 fold change” value is on record?
Answer: -0.762

Question: Which “shrunken log2 fold change” value does the source give for RRIRIRPPRLPRPRPRPNKKPRP here?
Answer: -0.0918

Question: Which “shrunken log2 fold change” value does the source give for RRIRQRPPRLPRPRPRPQMFPRP here?
Answer: 0.00489

Question: With RRIRIRPPRLPRPRPRPRSSPRP as the sequence, how does the “shrunken log2 fold change” value read?
Answer: 0.152

Question: How did the “shrunken log2 fold change” value turn out when RRIRFRPPRLPRPRPRPYDQPRP was run?
Answer: -0.0152

Question: With RRIRSRPPRLPRPRPRPDHAPRP as the sequence, how does the “shrunken log2 fold change” value read?
Answer: 0.0838

Question: For RRIRHRPPRLPRPRPRPYDYPRP, which “shrunken log2 fold change” value is on record?
Answer: -0.276

Question: How did the “shrunken log2 fold change” value turn out when RRIRFRPPRLPRPRPRPIFMPRP was run?
Answer: -0.314

Question: RRIRARPPRLPRPRPRPLNTPRP was tested. Which “shrunken log2 fold change” value did it give?
Answer: -0.169

Question: Which “shrunken log2 fold change” value does the source give for RRIRWRPPRLPRPRPRPGDRPRP here?
Answer: 0.468

Question: With RRIRQRPPRLPRPRPRPKANPRP as the sequence, how does the “shrunken log2 fold change” value read?
Answer: 0.0666

Question: RRIRCRPPRLPRPRPRPGPMPRP was tested. Which “shrunken log2 fold change” value did it give?
Answer: 0.326

Question: Which “shrunken log2 fold change” value does the source give for RRIRKRPPRLPRPRPRPLPSPRP here?
Answer: 0.0447

Question: RRIRSRPPRLPRPRPRPKWEPRP was tested. Which “shrunken log2 fold change” value did it give?
Answer: 0.274

Question: RRIRMRPPRLPRPRPRPTMIPRP was tested. Which “shrunken log2 fold change” value did it give?
Answer: -0.185

Question: With RRIRERPPRLPRPRPRPMNVPRP as the sequence, how does the “shrunken log2 fold change” value read?
Answer: -0.00243

Question: RRIRDRPPRLPRPRPRPGYPPRP was tested. Which “shrunken log2 fold change” value did it give?
Answer: 0.0463

Question: For RRIRSRPPRLPRPRPRPQTGPRP, which “shrunken log2 fold change” value is on record?
Answer: 0.0318

Question: RRIRARPPRLPRPRPRPCAVPRP was tested. Which “shrunken log2 fold change” value did it give?
Answer: 0.365

Question: How did the “shrunken log2 fold change” value turn out when RRIRCRPPRLPRPRPRPPVYPRP was run?
Answer: 0.000934

Question: RRIRWRPPRLPRPRPRPVNCPRP was tested. Which “shrunken log2 fold change” value did it give?
Answer: 0.0456

Question: RRIRIRPPRLPRPRPRPGRIPRP was tested. Which “shrunken log2 fold change” value did it give?
Answer: 0.0431

Question: RRIRPRPPRLPRPRPRPNVQPRP was tested. Which “shrunken log2 fold change” value did it give?
Answer: 0.0803

Question: How did the “shrunken log2 fold change” value turn out when RRIRIRPPRLPRPRPRPQHFPRP was run?
Answer: -0.109

Question: Which “shrunken log2 fold change” value does the source give for RRIRYRPPRLPRPRPRPHDSPRP here?
Answer: -0.08

Question: With RRIRKRPPRLPRPRPRPNVPPRP as the sequence, how does the “shrunken log2 fold change” value read?
Answer: 0.11

Question: For RRIRTRPPRLPRPRPRPVPKPRP, which “shrunken log2 fold change” value is on record?
Answer: 0.0251

Question: RRIRSRPPRLPRPRPRPKAHPRP was tested. Which “shrunken log2 fold change” value did it give?
Answer: 0.277

Question: With RRIRGRPPRLPRPRPRPEQEPRP as the sequence, how does the “shrunken log2 fold change” value read?
Answer: 0.0952

Question: RRIRPRPPRLPRPRPRPYPFPRP was tested. Which “shrunken log2 fold change” value did it give?
Answer: -0.0133
